Patent US7361348B2, “Immunogenic glycopeptides, screening, preparation and uses” (priority 2000, dated 2008)
Entries after “also recorded” stand apart in the source; their conditions may differ. Read-outs that look alike come from different tables or passages of the source.

Columns and labels:
[1] = tested on: guinea pigs immunized with live BCG; format: in vivo, guinea pig; conditions: for loss of antigenic activity during digestion with α-mannosidase: 0.2 μg intradermally
[2] = tested on: T lymphocytes; experiment: in vitro lymphocyte proliferation assay; format: cell-based
Text: The conditions of the assay are those described in Horn et al., mentioned above.

[3] = tested on: guinea pigs immunized with heat-inactivated BCG; format: in vivo, guinea pig
[4] = tested on: guinea pigs immunized with the Apa fusion peptide; format: in vivo, guinea pig
[5] = tested on: guinea pigs immunized with the plasmids pAG831 or pAG832; format: in vivo, guinea pig; conditions: antigen 0.2 μg in 100 μl
[6] = tested on: specific CD4+ T lymphocytes; conditions: cited from earlier work
[7] = guinea pigs immunized with live BCG

Lip: Mannosylated glycopeptide purified from M. tuberculosis culture, derived from the protein encoded by the Rv1796 gene (SEQ ID NO:3) (TIPTTETPPPPQTVTLSPVPPQTVTVIPAPPPEEG; not fully specified; mannosylated; MOD_RES (4)..(4) glycosidic bond to a di- or a tri-saccharide; listed as Mycobacterium tuberculosis)
delayed-type hypersensitivity of the peptide treated with subtilisin ([1]; 0.02 μg in 0.1 ml, live BCG): abolishes the antigenic activity; also recorded: negative
delayed-type hypersensitivity of the peptide treated with α-mannosidase ([1]; 0.02 μg in 0.1 ml, live BCG): negative
antigenic activity after deglycosylation ([1]; after α-mannosidase 24 h at 37° C., live BCG): less than 30 000 TU/mg
activity relative to the standard purified proteins from M. tuberculosis (PPD) ([1]; at an equivalent amount of proteins, Lip 0.02 μg vs PPD 0.25 μg in 0.1 ml): at least 10 times
antigenic activity [1, 7]: 1 000 000 TU/mg
delayed-type hypersensitivity reaction (in words) [1, 7]: very active
loss of the antigenic activity by action of α-mannosidase ([1]; α-mannosidase 24 h at 37° C.): more than 95%
T-lymphocyte proliferation ([2]; T lymphocytes treated with an antibody directed against CD4 molecules): marginal
T-lymphocyte proliferation ([2]; glycopeptide treated with α-mannosidase): marginal
T-lymphocyte proliferation ([2]; native Lip): dependent on the peptide concentration
delayed-type hypersensitivity reaction (in words) [3]: relatively inactive

B1: Native Apa: Mannosylated protein secreted by M. tuberculosis, product of the Rv 1860 gene, purified from culture supernatant (protein, UniProt P9WIR7 40-325, looked up)
Alanine and proline-rich …: DPEPAPPVPTTAASPPSTAAAPPAPATPVAPPPPAAANTPNAQPGDPNAAPPPADPNAPPPPVIAPNAPQPVRIDNPVGGFSFALPAGWVESDAAHFDYGSALLSKTTGDPPFPGQPPPVANDTRIVLGRLDQKLYASAEATDSKAAARLGSDMGEFYMPYPGTRINQETVSLDANGVSGSASYYEVKFSDPSKPNGQIWTGVIGSPAANAPDAGPPQRWFVVWLGTANNPVDKGAAKALAESIRPLVAPPPAPAPAPAEPAPAPAPAGEVAPTPTTPTPQRTLPA
modifications: native mannosylated
notes: Mannosylated protein secreted by M. tuberculosis, product of the Rv 1860 gene, purified from culture supernatant
loss of antigenic activity during digestion with α-mannosidase ([1]; digestion 1 h, tuberculin titre vs PPD standard): 66%
loss of antigenic activity during digestion with α-mannosidase ([1]; digestion 4 h (3 to 6 mannose residues remain)): 86%
delayed-type hypersensitivity reaction (in words) [1, 7]: show a delayed-type hypersensitivity reaction only in response to the native Apa; also recorded: considerable; also recorded: only the glycosylated native Apa is antigenic
delayed hypersensitivity sensitization (in words) [4]: identical
delayed-type hypersensitivity / CD4+ T lymphocyte response (in words) [5]: equivalent
loss of antigenicity on demannosylation ([6]; α-mannosidase, TFMS or expression in E. coli): 100 fold

B2: glycosylated Apa produced by Mycobacterium smegmatis: Glycosylated Apa produced by M. smegmatis, overall mannose composition slightly different from M. tuberculosis Apa (protein, UniProt P9WIR7 40-325, looked up)
Alanine and proline-rich …: DPEPAPPVPTTAASPPSTAAAPPAPATPVAPPPPAAANTPNAQPGDPNAAPPPADPNAPPPPVIAPNAPQPVRIDNPVGGFSFALPAGWVESDAAHFDYGSALLSKTTGDPPFPGQPPPVANDTRIVLGRLDQKLYASAEATDSKAAARLGSDMGEFYMPYPGTRINQETVSLDANGVSGSASYYEVKFSDPSKPNGQIWTGVIGSPAANAPDAGPPQRWFVVWLGTANNPVDKGAAKALAESIRPLVAPPPAPAPAPAEPAPAPAPAGEVAPTPTTPTPQRTLPA
modifications: glycosylated, produced in M. smegmatis
decrease of antigenic activity versus Apa produced by M. tuberculosis [6]: approximately 10 fold

B3: E. Coli recombinant Apa: deglycosylated recombinant Apa produced in E. coli (protein, UniProt P9WIR7 40-325, looked up)
Alanine and proline-rich …: DPEPAPPVPTTAASPPSTAAAPPAPATPVAPPPPAAANTPNAQPGDPNAAPPPADPNAPPPPVIAPNAPQPVRIDNPVGGFSFALPAGWVESDAAHFDYGSALLSKTTGDPPFPGQPPPVANDTRIVLGRLDQKLYASAEATDSKAAARLGSDMGEFYMPYPGTRINQETVSLDANGVSGSASYYEVKFSDPSKPNGQIWTGVIGSPAANAPDAGPPQRWFVVWLGTANNPVDKGAAKALAESIRPLVAPPPAPAPAPAEPAPAPAPAGEVAPTPTTPTPQRTLPA
modifications: non-glycosylated, produced in E. coli
delayed-type hypersensitivity reaction (in words) ([1]; guinea pigs immunized with live BCG, listed as molecules produced in E. coli): very weak or absent
delayed-type hypersensitivity reaction (in words) ([1]; guinea pigs immunized with live BCG, listed as non-glycosylated recombinant Apa produced in E. coli): no reaction or develop a greatly decreased reaction
delayed-type hypersensitivity / CD4+ T lymphocyte response (in words) [5]: of the same strength as the responses observed with the glycosylated native antigen
delayed-type hypersensitivity / CD4+ T lymphocyte response (in words) ([5]; listed as E. coli rApa): equivalent

B4: Deglycosylated Apa: deglycosylated Apa protein prepared as described in example 1 (α-mannosidase digestion) (protein, UniProt P9WIR7 40-325, looked up)
Alanine and proline-rich …: DPEPAPPVPTTAASPPSTAAAPPAPATPVAPPPPAAANTPNAQPGDPNAAPPPADPNAPPPPVIAPNAPQPVRIDNPVGGFSFALPAGWVESDAAHFDYGSALLSKTTGDPPFPGQPPPVANDTRIVLGRLDQKLYASAEATDSKAAARLGSDMGEFYMPYPGTRINQETVSLDANGVSGSASYYEVKFSDPSKPNGQIWTGVIGSPAANAPDAGPPQRWFVVWLGTANNPVDKGAAKALAESIRPLVAPPPAPAPAPAEPAPAPAPAGEVAPTPTTPTPQRTLPA
modifications: deglycosylated
delayed-type hypersensitivity reaction (in words) [1, 7]: very weak or absent
delayed hypersensitivity sensitization (in words) [4]: identical
delayed-type hypersensitivity / CD4+ T lymphocyte response (in words) [5]: of the same strength as the responses observed with the glycosylated native antigen
